Results reported in patent publication EP1787997A1 (Genetics Institute, LLC, dated 2007).

What was measured:
[1] = target: T1, human MU-1 Ig fusion protein (human, UniProt Q9HBE5 20-235); test: Biacore, MU-1 Ig fusion immobilized on chip
T1 construct: A soluble fusion would most likely hold only the extracellular part; Immobilized on a Biacore chip; not shown: Ig part of the fusion

[2] = target: T2, murine MU-1 Ig fusion protein (murine, UniProt Q9JHX3 20-236); test: Biacore, MU-1 Ig fusion immobilized on chip
T2 construct: It includes the predicted leader 1-19, the transmembrane domain 237-253 and the cytoplasmic domain; Immobilized on a Biacore chip; not shown: Ig part of the fusion

T1 sequence (Q9HBE5 20-235): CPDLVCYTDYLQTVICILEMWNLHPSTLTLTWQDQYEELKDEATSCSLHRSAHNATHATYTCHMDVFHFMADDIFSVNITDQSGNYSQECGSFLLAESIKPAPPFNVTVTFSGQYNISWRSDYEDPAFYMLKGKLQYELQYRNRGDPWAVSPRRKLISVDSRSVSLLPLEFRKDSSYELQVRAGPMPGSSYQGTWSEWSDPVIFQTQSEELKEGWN

B1: mIL-7 (ligand, mouse, UniProt P10168 26-154, looked up)
chain: ECHIKDKEGKAYESVLMISIDELDKMTGTDSNCPNNEPNFFRKHVCDDTKEAAFLNRAARKLKQFLKMNISEEFNVHLLTVSQGTQTLVNCTSKEEKNVKEQKKNDACFLKRLLREIKTCWNKILKGSI
B1: no binding [1]; no binding [2].

B2: mIL-2 (ligand, mouse, UniProt P04351 21-169, looked up)
chain: APTSSSTSSSTAEAQQQQQQQQQQQQHLEQLLMDLQELLSRMENYRNLKLPRMLTFKFYLPKQATELKDLQCLEDELGPLRHVLDLTQSKSFQLEDAENFISNIRVTVVKLKGSDNTFECQFDDESATVVDFLRRWIAFCQSIISTSPQ
B2: no binding [1]; no binding [2].
